Laboratory results as given in patent publication US20200113969A1.

How the values were obtained:
[1] = target: MMP-9 (commercial enzyme, Sigma) (UniProt P14780); assay: cell-based or functional assay
[2] = target: MMP-9 present in HT29 extracellular media (human) (UniProt P14780); assay: cell-based or functional assay
Sequence of MMP-9 present in HT29 extracellular media (human) (P14780 20-707): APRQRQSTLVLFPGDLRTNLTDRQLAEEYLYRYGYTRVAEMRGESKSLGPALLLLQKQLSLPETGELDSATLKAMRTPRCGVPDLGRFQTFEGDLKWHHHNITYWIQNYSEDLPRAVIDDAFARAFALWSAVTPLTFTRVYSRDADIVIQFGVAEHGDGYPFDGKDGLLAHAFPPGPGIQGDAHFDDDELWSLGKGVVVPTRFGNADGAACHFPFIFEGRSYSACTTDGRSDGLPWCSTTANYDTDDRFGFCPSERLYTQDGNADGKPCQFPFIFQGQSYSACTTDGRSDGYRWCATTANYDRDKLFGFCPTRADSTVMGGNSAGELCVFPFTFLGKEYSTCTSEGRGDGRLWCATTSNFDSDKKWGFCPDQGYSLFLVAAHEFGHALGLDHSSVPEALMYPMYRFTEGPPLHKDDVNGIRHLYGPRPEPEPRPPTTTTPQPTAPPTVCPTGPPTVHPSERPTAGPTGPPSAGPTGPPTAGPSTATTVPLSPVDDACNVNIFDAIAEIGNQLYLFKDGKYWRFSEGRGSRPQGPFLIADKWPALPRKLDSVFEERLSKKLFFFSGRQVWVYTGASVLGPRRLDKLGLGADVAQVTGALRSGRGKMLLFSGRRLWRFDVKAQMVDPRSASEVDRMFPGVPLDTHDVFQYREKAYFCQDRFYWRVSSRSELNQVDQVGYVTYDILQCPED

Sequence of MMP-9 (commercial enzyme, Sigma) (P14780 107-707 limits assumed): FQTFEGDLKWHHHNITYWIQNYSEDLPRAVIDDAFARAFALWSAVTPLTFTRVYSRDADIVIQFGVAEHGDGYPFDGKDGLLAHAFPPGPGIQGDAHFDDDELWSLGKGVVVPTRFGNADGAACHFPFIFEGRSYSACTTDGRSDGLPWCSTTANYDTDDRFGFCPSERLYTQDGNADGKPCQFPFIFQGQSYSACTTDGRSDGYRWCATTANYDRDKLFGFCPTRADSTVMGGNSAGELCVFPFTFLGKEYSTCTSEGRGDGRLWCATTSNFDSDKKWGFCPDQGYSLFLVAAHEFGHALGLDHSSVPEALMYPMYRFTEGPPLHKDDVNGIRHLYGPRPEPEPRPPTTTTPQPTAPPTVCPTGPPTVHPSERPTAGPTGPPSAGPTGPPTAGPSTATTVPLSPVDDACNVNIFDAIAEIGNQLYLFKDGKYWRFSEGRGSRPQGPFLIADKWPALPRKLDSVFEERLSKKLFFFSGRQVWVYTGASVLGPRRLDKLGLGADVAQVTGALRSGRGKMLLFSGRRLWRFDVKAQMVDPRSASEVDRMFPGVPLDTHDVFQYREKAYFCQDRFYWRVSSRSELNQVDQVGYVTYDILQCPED

| MMP-9 inhibitory activity, DQ gelatin assay [1] [%] | gelatinolytic activity of MMP-9 on DQ-gelatin, deflamin at 100 µg/mL [1] [%] | EC50, MMP inhibition (gelatinolytic activity of HT29 media, DQ-gelatin) [2] [µg/mL] | MIC, MMP inhibition (gelatinolytic activity of HT29 media, DQ-gelatin) [2] [µg/mL] | Substance |
| --- | --- | --- | --- | --- |
| 100 |  |  |  | fraction 4 of the size exclusion chromatography (Superdex 75) of the L. albus total protein extract |
|  | > 90 | 10 | < 5 | deflamin isolated from Lupinus albus seeds (from UniProt Q53HY0 31-531; F5B8W8 73-152) |
